The source of these data is US6498233 (dated 1996).

What is called EC50 is the concentration that produces a half-maximal response.

The target of this test is p185 erbB-2 on SK-BR-3 human breast carcinoma cells (human, UniProt P04626 23-1255).

B1: scFv(FRP5)-DETA-DGAL4 protein (scFv)
chain: DYKDDDDKLHHHHHHKLQVQLQQSGPELKKPGETVKISCKASGYPFTNYGMNWVKQAPGQGLKWMGWINTSTGESTFADDFKGRFDFSLETSANTAYLQINNLKSEDMATYFCARWEVYHGYVPYWGQGTTVTVSSGGGGSGGGGSGGGGSDIQLTQSHKFLSTSVGDRVSITCKASQDVYNAVAWYQQKPGQSPKLLIYSASSRYTGVPSRFTGSGSGPDFTFTISSVQAEDLAVYFCQQHFRTPFTFGSGTKLEIKALEGGSLAALTAHQACHLPLETFTRHRQPRGWEQLEQCGYPVQRLVALYLAARLSWNQVDQVIRNALASPGSGGDLGEAIREQPEQARLALTLAAAESERFVRQGTGNDEAGAANADEKLLSSIEQACDICRLKKLKCSKEKPKCAKCLKNNWECRYSPKTKRSPLTRAHLTEVESRLERLEQLFLLIFPREDLDMILKMDSLQDIKALLTGLFVQDNVNKDAVTDRLASVETDMPLTLRQHRISATSSSEESSNKGQRQLTVSSSDYKDEL
B1: the 50% effective concentration (EC50) stood at 20 nM. This counts as double-digit nanomolar.
